Results from the supplement of paper PMC10567573.
± gives the standard deviation.

Assay: protein stability index of a GFP-peptide fusion (GPS, HEK-293T) (PSI 1-6); higher = more stable
[1] = treatment: DMSO, c terminus: a fixed tail appended
[2] = treatment: MLN4924 1 uM, 8 h, c terminus: a fixed tail appended
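Further: 24-mer peptide tiles fused after GFP, lentivirally expressed, FACS-sorted into six equal bins by GFP/DsRed ratio, decoded by Illumina sequencing, PSI is the read-weighted mean bin number.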

Sequence | protein stability index [1] | protein stability index [2] | protein stability index (treatment: DMSO, c terminus: native) | protein stability index (treatment: MLN4924 1 uM, 8 h, c terminus: native)
YLTVKVWDLNMENRPIETYQVHDY [PPP2R2B] | 2.25 ± 0.032 | 2.31 ± 0.2 | – | –
EIDEKVTDLVQFLLFKYQMKEPIT [MAGEA10] | 2.35 ± 0.5 | 1.75 ± 0.3 | – | –
YSYLVLLFPVFLATDYLRYKPVVL [SLC19A2] | 3.56 ± 0.34 | 3.01 ± 0.51 | – | –
NKRERSKLKNLRRKQRRRERWLQK [RNF180] | 4.32 ± 0.24 | 4.49 ± 0.38 | – | –
ASLGREESRAPSPLLHKDSASLEV [CBY2] | 4.79 ± 0.31 | 4.85 ± 0.19 | – | –
MITVPIGLYFTTKSYIFEGALGMS [VMA21] | 2.49 ± 0.7 | 2.89 ± 0.43 | – | –
EEEDQHMKLSLGGSEMGLSSHLQS [KLHL13] | 4.95 ± 0.12 | 4.91 ± 0.14 | – | –
VSITLLALVYLPGVIAAIVQLHNG [STEAP1] | 3.5 ± 0.33 | 3.11 ± 0.14 | – | –
TAKDNGEAEDQEEKEDAEKENIEK [SRPK2] | 5.58 ± 0.12 | 5.67 ± 0.25 | – | –
QTRNGLGKDHEILRRRIENGAKEL [FUT8] | 4.34 ± 0.33 | 4.33 ± 0.1 | – | –
DCIFDKFECAWNGSDSVIMTGAYN [PPP2R2C] | 2.68 ± 0.3 | 2.74 ± 0.17 | – | –
TWVPMFLSTLLAPYQALRLWARGT [SOAT2] | 2.81 ± 0.48 | 2.72 ± 0.64 | – | –
LQLLHECSPSQMDLLCAQLQLPQL [FANCE] | 2.33 ± 0.27 | 2.49 ± 0.11 | – | –
TQSDEENGRACEMNGEECAEDLRM [IKZF1] | 5.66 ± 0.28 | 5.66 ± 0.19 | – | –
HSQRTALHLAAQKALRTISTGRI [INVS] | – | – | 3.08 ± 0.9 | 2.36 ± 0.086
TLFQTESPQSGSILTEETEVKGTL [PBXIP1] | 4.92 ± 0.17 | 4.7 ± 0.25 | – | –
SARFWIPGEPNNAGNNEHCGNIKA [CD207] | 4.03 ± 0.47 | 4.18 ± 0.41 | – | –
GYSDRDGYGRDRDYSDHPSGGSYR [RBMX] | 4.6 ± 0.31 | 4.81 ± 0.45 | – | –
ISSIGQVQSYMEHYCNSSTDRRVL [SPACA9] | 3.23 ± 0.33 | 3.25 ± 0.36 | – | –
PELTPEEEQATKQFLEEINKWTVQ [PTPN9] | 5.01 ± 0.23 | 4.86 ± 0.12 | – | –
CARMLYNYGADTNTRNYEGQTPLA [ASB7] | 2.63 ± 0.28 | 2.62 ± 0.36 | – | –
LPNYNWNSFGLRFGKREAAPGNHG [KISS1] | 3.14 ± 0.36 | 3.36 ± 0.42 | – | –

Sequence | protein stability index [1] | protein stability index [2] | protein stability index (treatment: DMSO, c terminus: native) | protein stability index (treatment: MLN4924 1 uM, 8 h, c terminus: native)
ATGDTALTYACENGHTDVADVLLQ [ANKRD17] | 4.41 ± 0.21 | 4.56 ± 0.08 | – | –
SITEMFGEFRTGKTQICHTLAVTC [RAD51] | 2.59 ± 0.33 | 2.05 ± 0.48 | – | –
FIEIELDRQELTYQELLRVCCCEL [ANKRD40] | 2.67 ± 0.61 | 2.67 ± 0.66 | – | –
LESSDLPVALLLAQHKDRSTQLEM [MNAT1] | 3.47 ± 0.23 | 3.53 ± 0.3 | – | –
LPRKESPSVRSSKDGKLLAATLLL [TNFSF13B] | 2.26 ± 0.21 | 2.18 ± 0.22 | – | –
TSGMGFHAPKIGSNGVEMAAKFPS [SDE2] | 3.53 ± 0.28 | 3.5 ± 0.27 | – | –
KILYDDGKMVEEVDGRATQKLIVN [PTPRD] | 3.92 ± 0.34 | 3.605 ± 0.004 | – | –
CRVFWWLGDRDRSRAALVCRKWNQ [FBXO39] | 2.46 ± 0.87 | 2.06 ± 0.41 | – | –
LSIYVGCDKYPHESQLPEEWENNR [CPXM2] | 2.98 ± 0.13 | 3.25 ± 0.4 | – | –
STLEESVVRICCIRSFGHFIARLQ [SMG5] | 2.29 ± 0.04 | 2.19 ± 0.37 | – | –
LIGLPPEDDWPRDVSLPRGAFPPR [CDK4] | 3.49 ± 0.32 | 3.69 ± 0.23 | – | –
RDAIEALCRRLNTLNKCAVMKLEI [DLC1] | 2.13 ± 0.49 | 2.54 ± 0.17 | – | –
PTLAKFSPYLGQMINLRRLLLSHI [PRAME] | 2.33 ± 0.42 | 2.15 ± 0.11 | – | –
YRYCCKLNKKLKSYSLSRKKIVHY [CDC14A] | 2.27 ± 0.38 | 2.25 ± 0.53 | – | –
YICPDYQSYFKTIEDFQQKILLTK [KRT36] | 2.33 ± 0.59 | 2.13 ± 0.28 | – | –
VSIIDTELKVKDSQPIDLSACTVA [TRIP13] | 3.28 ± 0.45 | 3.33 ± 0.29 | – | –
YDFMNSAFSPIVILTERVSLPFKP [MIA2] | 2.22 ± 0.62 | 2.17 ± 0.18 | – | –
IGELLAPAAPFDKKCGRENWTVAF [WSB1] | 2.23 ± 0.12 | 2.57 ± 0.45 | – | –
SSIPCSGSLDGRELSRQVRSSVEL [PPEF2] | 4.298 ± 0.036 | 4.17 ± 0.13 | – | –
LISQCGKPVVNVSYRPAYDQGGPV [DUSP5] | 2.61 ± 0.38 | 2.6 ± 0.42 | – | –
TLCKADLEAQVESLKEELMCLKKN [KRT36] | 3.51 ± 0.4 | 3.83 ± 0.15 | – | –
MPEYRGQGIGSKIIKKVAEVALDK [SAT2] | 3.65 ± 0.35 | 4.05 ± 0.27 | – | –
